Here are results for 18 variants from the supplement of paper PMC7125110.

B1: glmS ribozyme (parent)
chain: AUAAAAGCGCCAGAACUACAGAAAUGUAGUUGACGAGGAGGAGGUUUAUCGAAUUUUCGGCGGAUGCCUCCAAA

± gives the standard error. For some assays here: This sample holds only a part of the variants without activity.

Holding throughout (details): with glucosamine-6-phosphate
Variants of B1 are the subject of data set [1]. Nature of the data set: kcat; higher = faster cleavage; RNA array. An outline of the steps:
(§1)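 Tiles of sequenced MiSeq chips were imaged over ~14 h at 37 °C. On them, barcoded ribozyme variants had been transcribed in situ by E. coli RNA polymerase and were tracked via a hybridised Cy3 probe while glucosamine-6-phosphate (40 μM to 10 mM) in HEPES/KCl/Mg(OAc)2 buffer flowed in. Per-tile medians, normalised to baseline and to non-cleaving reference variants, were fit to one- or two-exponential decays for kobs, and weighted Michaelis–Menten fits gave kcat and KM.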

In data set [2] the parent is B1. The data set is described as follows: self-cleavage kobs at 40 uM GlcN6P; higher = faster cleavage; RNA array. An outline of the steps:
as §1

Variants of B1 are the subject of data set [3]. The data set is described as follows: self-cleavage kobs at 160 uM GlcN6P; higher = faster cleavage; RNA array. An outline of the steps:
as §1

Data set [4] covers variants of B1. Nature of the data set: self-cleavage kobs at 640 uM GlcN6P; higher = faster cleavage; RNA array. Summed up:
as §1

In data set [5] the parent is B1. Nature of the data set: self-cleavage kobs at 10000 uM GlcN6P; higher = faster cleavage; RNA array. Summed up:
as §1

In data set [6] the parent is B1. Nature of the data set: self-cleavage kobs at 2500 uM GlcN6P; higher = faster cleavage; RNA array. An outline of the steps: as §1
Variants of B1 are the subject of data set [7]. The data set is described as follows: KM; higher = weaker cofactor use; RNA array. Summed up: as §1

On to G44C G66U, for which, in data set [1], the kcat (as a rule, the maximal rate divided by the concentration of active sites) is below 1e-05 s⁻¹. The “self-cleavage kobs at 40 uM GlcN6P” value in data set [2] is below 1e-05 s⁻¹. Moreover, the “self-cleavage kobs at 160 uM GlcN6P” value in data set [3] was below 1e-05 s⁻¹. For the same variant, in data set [4], the “self-cleavage kobs at 640 uM GlcN6P” value is below 1e-05 s⁻¹. In addition, the “self-cleavage kobs at 10000 uM GlcN6P” value in data set [5] is below 1e-05 s⁻¹.

G35A G38A: the turnover number (kcat) in data set [1] is below 1e-05 s⁻¹.

For U54G C70G, the kcat in data set [1] was 0.000119 ± 2.1e-05 s⁻¹. Further, in data set [2], the “self-cleavage kobs at 40 uM GlcN6P” value was 8.74e-05 ± 8.1e-06 s⁻¹. Besides, the “self-cleavage kobs at 160 uM GlcN6P” value in data set [3] turned out to be 0.000128 ± 1.7e-05 s⁻¹. Further, in data set [4], the “self-cleavage kobs at 640 uM GlcN6P” value is 0.000182 ± 2.2e-05 s⁻¹. Further, the “self-cleavage kobs at 2500 uM GlcN6P” value in data set [6] came to 0.000182 ± 2.5e-05 s⁻¹. Further, in data set [5], the “self-cleavage kobs at 10000 uM GlcN6P” value is 9.76e-05 ± 9.2e-06 s⁻¹.

As to G9A G38U, the kcat in data set [1] is below 1e-05 s⁻¹. Besides, the “self-cleavage kobs at 640 uM GlcN6P” value in data set [4] is below 1e-05 s⁻¹.

As to C10A U65A, in data set [1], the kcat stood at 1.06e-05 ± 3e-06 s⁻¹.

Regarding C16A U31G C70U, the kcat in data set [1] worked out at 0.00025 ± 1.3e-05 s⁻¹. In data set [7], the KM – broadly, the concentration of substrate that gives half-maximal velocity – was determined as 351 ± 54 µM. In addition, the “self-cleavage kobs at 160 uM GlcN6P” value in data set [3] was 7.99e-05 ± 2.2e-05 s⁻¹. Moreover, the “self-cleavage kobs at 640 uM GlcN6P” value in data set [4] was determined as 0.000157 ± 3e-05 s⁻¹. Moreover, in data set [6], the “self-cleavage kobs at 2500 uM GlcN6P” value is 0.000242 ± 6.1e-05 s⁻¹. Moreover, the “self-cleavage kobs at 10000 uM GlcN6P” value in data set [5] came to 0.000235 ± 4.9e-05 s⁻¹.

With A12G C70U, the turnover number (kcat) in data set [1] amounted to 0.00188 ± 0.00036 s⁻¹. In addition, in data set [7], the KM is 4460 ± 1400 µM. Further, the “self-cleavage kobs at 40 uM GlcN6P” value in data set [2] is 1.71e-05 ± 6.8e-06 s⁻¹. In data set [3], the “self-cleavage kobs at 160 uM GlcN6P” value was found to be 7.66e-05 ± 6.8e-06 s⁻¹. In addition, in data set [4], the “self-cleavage kobs at 640 uM GlcN6P” value amounted to 0.00025 ± 2.2e-05 s⁻¹. Besides, the “self-cleavage kobs at 2500 uM GlcN6P” value in data set [6] came out at 0.00055 ± 4.3e-05 s⁻¹. Besides, the “self-cleavage kobs at 10000 uM GlcN6P” value in data set [5] is 0.00139 ± 7.5e-05 s⁻¹.

On to G13C U55C, for which the kcat in data set [1] came to 9.82e-05 ± 8.2e-06 s⁻¹. In addition, the KM in data set [7] turned out to be 1500 ± 410 µM. Besides, the “self-cleavage kobs at 40 uM GlcN6P” value in data set [2] is below 1e-05 s⁻¹. Further, the “self-cleavage kobs at 640 uM GlcN6P” value in data set [4] worked out at 3.6e-05 ± 1.6e-05 s⁻¹. Moreover, the “self-cleavage kobs at 2500 uM GlcN6P” value in data set [6] amounted to 5.66e-05 ± 1.3e-05 s⁻¹. In addition, the “self-cleavage kobs at 10000 uM GlcN6P” value in data set [5] came out at 8.8e-05 ± 1.5e-05 s⁻¹.

With A15U U69C, the kcat in data set [1] came to 0.000652 ± 0.00018 s⁻¹. Besides, the Michaelis-Menten constant (KM) in data set [7] is 1120 ± 510 µM. In addition, the “self-cleavage kobs at 40 uM GlcN6P” value in data set [2] came out at 5.12e-05 ± 1.2e-05 s⁻¹. Further, the “self-cleavage kobs at 160 uM GlcN6P” value in data set [3] was found to be 8.72e-05 ± 1.3e-05 s⁻¹. The “self-cleavage kobs at 640 uM GlcN6P” value in data set [4] was 0.000203 ± 2.7e-05 s⁻¹. In data set [6], the “self-cleavage kobs at 2500 uM GlcN6P” value was 0.000443 ± 7.7e-05 s⁻¹. Besides, the “self-cleavage kobs at 10000 uM GlcN6P” value in data set [5] was determined as 0.000677 ± 0.00011 s⁻¹.

For C10G C50U, the kcat in data set [1] is below 1e-05 s⁻¹. In data set [2], the “self-cleavage kobs at 40 uM GlcN6P” value was below 1e-05 s⁻¹. For the same variant, the “self-cleavage kobs at 10000 uM GlcN6P” value in data set [5] was below 1e-05 s⁻¹.

With A6C A14U, in data set [1], the kcat came to 1.09e-05 ± 1.1e-06 s⁻¹.

As for A36C U55C, the kcat in data set [1] is below 1e-05 s⁻¹. Besides, the “self-cleavage kobs at 10000 uM GlcN6P” value in data set [5] is below 1e-05 s⁻¹.

With C61U A64G, the kcat in data set [1] amounted to 2.3e-05 ± 9.4e-07 s⁻¹. The Michaelis constant (KM) in data set [7] is 1200 ± 250 µM. Besides, the “self-cleavage kobs at 40 uM GlcN6P” value in data set [2] is below 1e-05 s⁻¹. In data set [3], the “self-cleavage kobs at 160 uM GlcN6P” value is below 1e-05 s⁻¹.

Turning to G32C C70U, the catalytic constant (kcat) in data set [1] was found to be 0.000154 ± 1.4e-05 s⁻¹. In data set [7], the KM is 2850 ± 800 µM. Also, the “self-cleavage kobs at 640 uM GlcN6P” value in data set [4] came to 3.89e-05 ± 1.1e-05 s⁻¹. Also, the “self-cleavage kobs at 2500 uM GlcN6P” value in data set [6] stood at 6.52e-05 ± 1e-05 s⁻¹. Moreover, the “self-cleavage kobs at 10000 uM GlcN6P” value in data set [5] was 0.000121 ± 7.5e-06 s⁻¹.

Turning to A15U A42G, the turnover number (kcat) in data set [1] was determined as 0.00684 ± 0.0019 s⁻¹. In data set [7], the KM came to 1500 ± 570 µM. Besides, the “self-cleavage kobs at 40 uM GlcN6P” value in data set [2] is 0.000222 ± 3.2e-05 s⁻¹. In addition, in data set [3], the “self-cleavage kobs at 160 uM GlcN6P” value was 0.000542 ± 0.00018 s⁻¹. Besides, the “self-cleavage kobs at 640 uM GlcN6P” value in data set [4] stood at 0.00165 ± 0.00033 s⁻¹. For the same variant, the “self-cleavage kobs at 2500 uM GlcN6P” value in data set [6] came out at 0.0039 ± 0.0016 s⁻¹. The “self-cleavage kobs at 10000 uM GlcN6P” value in data set [5] was determined as 0.00687 ± 0.0013 s⁻¹.

With A39U C50A, the kcat in data set [1] stood at 1.72e-05 ± 1.5e-06 s⁻¹. In addition, the “self-cleavage kobs at 160 uM GlcN6P” value in data set [3] is below 1e-05 s⁻¹.

As to A15U A52G, in data set [1], the kcat was 0.00041 ± 2.6e-05 s⁻¹. Moreover, the Michaelis constant (KM) in data set [7] was 2270 ± 280 µM. Also, the “self-cleavage kobs at 640 uM GlcN6P” value in data set [4] was determined as 8.94e-05 ± 1.6e-05 s⁻¹. Besides, the “self-cleavage kobs at 2500 uM GlcN6P” value in data set [6] amounted to 0.000222 ± 3.6e-05 s⁻¹. Further, in data set [5], the “self-cleavage kobs at 10000 uM GlcN6P” value was found to be 0.000331 ± 4.6e-05 s⁻¹.

Turning to G29A U49G, in data set [1], the turnover number (kcat) came to 6e-05 ± 8e-06 s⁻¹. The “self-cleavage kobs at 640 uM GlcN6P” value in data set [4] was found to be 4.72e-05 ± 1.7e-05 s⁻¹. In data set [6], the “self-cleavage kobs at 2500 uM GlcN6P” value was found to be 4.32e-05 ± 1.4e-05 s⁻¹. Moreover, the “self-cleavage kobs at 10000 uM GlcN6P” value in data set [5] was 6.26e-05 ± 1.1e-05 s⁻¹.
